# Measurements published in the nanobody polyreactivity screen of Harvey et al. (2022).
# Assay: yeast display, Sf9 membrane polyspecificity reagent, FACS + sequencing; frameworks hold sequencing errors
# In short: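 A nanobody's polyreactivity label depends on the gate it was sorted from. Yeast display cells were stained with 10% biotinylated, detergent-solubilized Sf9 membrane reagent for 1 hour at 4 °C, enriched on streptavidin microbeads and sorted by FACS. The low and high (top ~1%) gates were set on anti-HA fluorescence for expression and streptavidin fluorescence for reagent binding.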
row,Sequence,polyreactivity (PSR sort gate)
1,QVQLVESGGGLVQAGGSLRLSCAASGRTFYDNTMGWYRQAPGKERELVAAISRGGSTYADSVKGRFTISRDNAKNTVYLELNSLKPEDTAVYYSNKRSITTEYGYWGQGTQVTVSS,low polyreactivity
2,QVQIVESGGGLVQAGGSLRLSCAASGSIFRYYALGWYRQAPGKERELVAAISSGTITNYADSVKGRFTISRDNAKNTVYLQMNSLKPEDTAVYYCAADTWYLGYPDYWLDYWGQGTQVTVSS,low polyreactivity
3,QVQLVESGVGLVQAGGSLRVSCAASGLTFAYYDMGWYRQAPGKERELVAAITWNGGSTYYADSVKGRFTISRDNAKNTVYLQMNSLKPEDTAVYYCAASWGYGYSGRFDYWGQGTQVSVSS,high polyreactivity
4,QVQLEDSGGGLVQAGGSLRLSCAASGSIFRRNFMGWNRQAPGKERELVAAISWSGDRTYYADSVKGRFTISRDNAKNTVYLQMNSLKPEDTAVYYCNAVYWPYRYDYWGQGTQVTVSS,high polyreactivity
5,QVQLVESGGGLVQAGGSLRLSCAASGFIFGWNAMGWYRQAPGKVREFVAAITSSGTSTYYADSVKGRFTISRDNAKNTVYLQMNSLKPEDTAVYYCAADVIFTWLAYSTEYDYWGQGTQVTVSS,low polyreactivity
6,QVQLVESGGGLVQAGGSLRLSCAASGFIFYRYVMGWFRQAPGKERELVAAISGRGGSTYYADSVKGRFTISRDNAKNTVYLQMNSLTPEDTAVYYCNRLVYRAAGGPMDYWGQGTQVTVSS,high polyreactivity
7,QVQLVESGGGLVQAGGSLRLSCAASGSIFWYYVMGWYRPAPGKERELVAAISNVSTYYADSVKGRFTISRDNAKNTVYLQMNSLKPEDTAVYYCAARGLLWYYSWRYYYWGQGTQVTVSS,low polyreactivity
8,QVQLVESGGGLVQAGGSLRLSCAASGSIFSRNDMGWYRQAPGKERELVAAITSDDTSTYYADSVNGRFTISRDNAKNTVYLQMNSLKPEDTAVYYCAADYGNPFDYWGQGTQVTVSS,low polyreactivity
9,QVQLVESGGGLVQAGGSLRLSCAASGRIFKYNAMGWYRQAPGKERELVAVITSGGSTNYADSVKGRFTISRDNAKNTVYLQMNSLKPEDTAVYYCNARRYSTYDYWGQGTQVTVSS,high polyreactivity
10,QVQLVESGGGLVQAGGSLRLSCGASGFISKFYAMGWYRQAPGKERELVASISRDGSTSYADSVKGRFTMSRDNAKNSVYLQMNSLKPEDTAVYYCAAPSYRTRYYYWGQGTQVTVSS,high polyreactivity
11,QVQLVESGGGLVQAGGSLRLSCAASGIISRVYAMGWYRLAPGKERELVAAISGSGGTTYYADSVKGRFTISRDNAKNTVYLLMNSLKPEDTAVYYCAARYKALYDYWGQGSQVTVSS,high polyreactivity
12,QVQVVESGGGLVQAGGSLRLSCAASGRTFRSYAMVWYRQAPGKERELVASISRGASTNYADSVNGRFTISRDNSKNTVYLQRNSLKPEDTAVYYCAAKYSWGYTYYYWGQGTQVTVSS,high polyreactivity
13,QVQLVESGGGLVQAGGSLRLSCAASGSTFWSNAMGWYRQAPGKERELVATINSGDGTNYADSVKGRFTISRDNAKNTVYLQMNSLKPEDTAVYYCAAEKYYPWGWYTYDYWGQGTQVTVSS,high polyreactivity
14,QVQLVESGGGLVQAGASLRLSCAATGNIFVPNAMGWYRQEPGKERELVAAIRRGGSTNYADSVKGRFTISRDNAKNTVYLQMNSMKPEDTAVYYCAKSRVSFTELEGYYWGQGTQVNVSS,low polyreactivity
15,QVQLVESGGGLVQAGGSLRLSCAASGRTFANYAMGWYRQAPGKERELVAAISYSGGSTYYADSVKGRFTISRDNAKNTVYLQMNSLKPVDTAVYYCAKRWTGLGGYYYWGQGTQVTVSS,high polyreactivity
16,QVQLVESGGGLVQAGGSLRLSCAASGFLFGYSAMGWYRQAPGKERELVAAISYACRSTYYADSVKGRFTISRDNAKNTVYLQMNSLKPEDTAVYYCAKYGQSNYDWGQGTQVTVSS,high polyreactivity

row,Sequence,polyreactivity (PSR sort gate)
1,QVQLVESGGGLVQAGGSLRLSCAASGRIIRKNTMGWYRQAPGKERELVAAIRWSTTSTYYADSVKGRFTISRDNAKNTVYLQMHSLKPEDTAVYYCAARRRDSYGNIYDYWGQGTQVTVSS,high polyreactivity
2,QVQLVESGGGLVQAGGSLRLSCAPSGSILWQYAMGWYRQAPGKERELVAAITYSGGSTHYADSVKGRFTISRDNAKNTVYLQMNSLKPEETAVYYCAAGYWYRYAALRYDHWGQGTQVTVSS,low polyreactivity
3,QVQLVESAGGLVQAGGSLRLSCAAYGRIFAYNAMGWYRQSPGKERELVAAITWSGDSTYYADSVKGRFTISRDNAKNTVYLQMNSLKPEDTAVYYCATDPLFITSTRWKYDYWGQGTQVTVSS,low polyreactivity
4,QVQLVESGGVLLQAGGSLRLSCAASGRIFTLYDRGWYRQAPGKEREMDAAISNSAGSTYYADSVKGRFTISRDNAKNTVYLQMNSLKPEDTAGYYCARSYSYWGYRSVYYWGQGTQVTVSS,high polyreactivity
5,QVQLVESGGGLVQAGGSLRLSCAASGFTFLIYAMGWYRQAPGKERELVAAITWRGSGTYYADSVKGRFTISRDNAKNTVYLQMNSLNPEDTAVFYCGARTARRTYDYWGQGTQVTVSS,low polyreactivity
6,QVQLVESGGGLVQAGGSLRLSCAASGFTFPEYSMGWYRQAPGKERELVAAITRRGTTTYYADSVKGRFTISRYTAKNTVYLQMNILKPEDTAVYYCAALAWSAYDYWGQGTQVTVSS,high polyreactivity
7,QVHLVESGGGLVQAGGSLRVSCDASGILYTVYAMGWYRQAPGKQRELVAAITWSGGSTYYADSVKGRFTISRDNAKNTVYLQMNSLKPEDTEVYYCNTVGRVWDVETDGDYDYWGQGTQVTVSS,low polyreactivity
8,QVQLVESGGGLVQAGGSLRLSCAASGSTFWEYAMGWYRQAPGKEREFVAAISYRGGGTYYADSVKGRFTISRDNAKNTVYLQKNSLKPEDTAVYYCAARRWRGRYWGDYWGQGTQVTVSS,high polyreactivity
9,QVQLVESGGGLVQAGGSLRLSCAASGRTFDPYAMGWYRQAPGKERELVAAITSGDDTYYADSVKGRFTISRDTAKNTVYLQMNSLKPEETAVYFCAAASFTPDYYSHDYWGQGTQVTVSS,low polyreactivity
10,QVHLVESGGGLVQAGGSLSLSCAASGSIFRYYAMGWYRQAPGKEREFVAAITRGGGRTYYADSVKGRFTISRDTAKHTVYLQLNSLKPEDTAVYSCAAGPPRTRYRNARFDYWGQGTQVTVSS,high polyreactivity
11,QVQLVESGGGLVQAGGSLRLSCAASGSIFGRYAMGLYRQAPGKERELVATISRTGGSTNYADSVKGRFTISRDNAKNTVSLQMNSLKPEDTAVYYCNAASVYANYYTYVDYYTEGFYYWGQGTQVTVSS,low polyreactivity
12,QVHLVESGGGLVQAGGSLRLSCAATGRTFRSYAMGWYRQAPGKEREFVAAISRSGASTRYPDSVKGRFTISRDIAKTTVYLQMNSLKPEVTAVYYCAAVWPDVRGYDYWGQGTEVTVSS,high polyreactivity
13,QVQLVESGGGLVQAGGSLRLSCAASGSTFFVNAMGWYRQPPGKERELVAAISTSGGRTYYADSVKGRFTISRDNAKNTVYLQMNSLKPEDTAVYYCAAYLRSPKGYYYWGQGTQVTVSS,high polyreactivity
14,QVQLVESGGGLVQAGGSLRLSCAASGITFRPYPMGWYRQAPGKERELVATINWSGGSTYYADSVKGRFTISRDNAKKTVYLQMNSLKPEDTAVSYCAVTWYVRRWYGYWGQGTQVTVSS,high polyreactivity
15,QVQLVESGGGLVQAGGSLRLSCAASGSIFLLYAMGWYRQAPGKERELVAAMSRGGSTYADSVKGRFTISRDNAKNTVYLQMNSLKPEVTAVYYCAASDQYRWYVHRWEDPFYYWGQGTQVTVSS,low polyreactivity
16,QVQLVESGGGLVQAGGSLRLSCAASGRIFAQYAMGWYRQAPGKDRELVADISSGVRTYADSVKGRFTISRDNAKNTVYLQMNSLKPEDTAVYYCNAYYIIFTRNDYWGQGTQVNVSS,low polyreactivity
